# T1: glucagon-like peptide-1 receptor-Rluc8, P43220
# T1 chain: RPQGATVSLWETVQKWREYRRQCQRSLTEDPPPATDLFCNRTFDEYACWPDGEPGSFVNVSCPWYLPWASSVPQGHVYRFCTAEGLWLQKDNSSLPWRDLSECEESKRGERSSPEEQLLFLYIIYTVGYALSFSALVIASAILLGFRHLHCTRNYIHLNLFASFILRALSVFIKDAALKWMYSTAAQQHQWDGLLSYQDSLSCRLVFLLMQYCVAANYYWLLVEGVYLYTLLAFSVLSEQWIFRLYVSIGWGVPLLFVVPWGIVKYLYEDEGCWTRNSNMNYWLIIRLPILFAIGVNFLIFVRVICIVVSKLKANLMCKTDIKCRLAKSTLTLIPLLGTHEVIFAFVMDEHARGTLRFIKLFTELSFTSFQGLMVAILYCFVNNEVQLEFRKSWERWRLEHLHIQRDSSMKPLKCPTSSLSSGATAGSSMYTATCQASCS
# T2: growth hormone-releasing hormone receptor-Rluc8, Q02643
# T2 chain: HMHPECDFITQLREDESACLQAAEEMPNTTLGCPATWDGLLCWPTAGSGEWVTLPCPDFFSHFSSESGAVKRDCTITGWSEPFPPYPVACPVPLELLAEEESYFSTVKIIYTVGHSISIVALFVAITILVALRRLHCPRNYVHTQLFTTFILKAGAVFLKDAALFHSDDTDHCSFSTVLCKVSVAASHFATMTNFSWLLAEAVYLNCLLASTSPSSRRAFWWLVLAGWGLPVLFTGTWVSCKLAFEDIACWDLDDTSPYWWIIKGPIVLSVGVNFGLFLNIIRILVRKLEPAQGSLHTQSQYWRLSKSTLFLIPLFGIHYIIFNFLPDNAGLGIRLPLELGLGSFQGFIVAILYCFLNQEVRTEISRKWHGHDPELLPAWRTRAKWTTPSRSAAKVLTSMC
# Tests used:
# Assay in all cases: FRET or BRET
# [1] = target: T1, glucagon-like peptide-1 receptor-Rluc8, …; details: remark: other sources report otherwise
# [2] = target: T2, growth hormone-releasing hormone …; details: remark: other sources report otherwise
# [3] = target: secretin receptor-Rluc8, P47872; details: remark: other sources report otherwise
# secretin receptor-Rluc8, P47872, sequence (P47872 23-440): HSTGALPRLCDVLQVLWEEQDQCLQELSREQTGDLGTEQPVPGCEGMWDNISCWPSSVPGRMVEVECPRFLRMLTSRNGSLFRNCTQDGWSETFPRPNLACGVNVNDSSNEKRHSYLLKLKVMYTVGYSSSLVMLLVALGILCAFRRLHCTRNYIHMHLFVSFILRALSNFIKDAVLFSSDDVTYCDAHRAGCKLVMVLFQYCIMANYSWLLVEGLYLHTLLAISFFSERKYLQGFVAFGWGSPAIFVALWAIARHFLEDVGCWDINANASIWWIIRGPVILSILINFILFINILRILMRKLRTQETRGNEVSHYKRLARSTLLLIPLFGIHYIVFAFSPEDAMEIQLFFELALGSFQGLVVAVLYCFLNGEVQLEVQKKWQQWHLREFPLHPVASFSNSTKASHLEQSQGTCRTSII
# [4] = target: SV1, splice variant of GHRHR, -Rluc8
BRET50 (Kd) (intensity ratio of RAMP:receptor) [1],BRET50 (Kd) (intensity ratio of RAMP:receptor) [2],BRET50 (Kd) (intensity ratio of RAMP:receptor) [3],BRET50 (Kd) (intensity ratio of RAMP:receptor) [4],Binder
10.9,2.43,1.3,,"RAMP1-Ypet (receptor activity-modulating protein 1), O60894 27-148 (natural protein) CQEANYGALLRELCLTQFQVDMEAVGETLWCDWGRTIRSYRELADCTWHMAEKLGCFWPNAEVDRFFLAVHGRYFRSCPISGRAVRDPPGSILYPFIVVPITVTLLVTALVVWQSKRTEGIV"
,,,5.98,RAMP3-Ypet (receptor activity-modulating protein 3) (natural protein) RAGGCNETGMLERLPLCGKAFADMMGKVDVWKWCNLSEFIVYYESFTNCTEMEANVVGCYWPNPLAQGFITGIHRQFFSNCTVDRVHLEDPPDEVLIPLIVIPVVLTVAMAGLVVWRSKRTDTLL
2.23,,2.41,,"RAMP2-Ypet (receptor activity-modulating protein 2), O60895 43-175 (natural protein) QPLPTTGTPGSEGGTVKNYETAVQFCWNHYKDQMDPIEKDWCDWAMISRPYSTLRDCLEHFAELFDLGFPNPLAERIIFETHQIHFANCSLVQPTFSDPPEDVLLAMIIAPICLIPFLITLVVWRSKDSEAQA"

# Source: publication PMC8897147
